Four molecules from patent US20140105855A1 (published 2014) can be followed below.

Sequences and labels used below:
B2: IL-17RB extracellular domain (receptor, UniProt Q9NRM6 18-292, looked up)
chain: REPTVQCGSETGPSPEWMLQHDLIPGDLRDLRVEPVTTSVATGDYSILMNVSWVLRADASIRLLKATKICVTGKSNFQSYSCVRCNYTEAFQTQTRPSGGKWTFSYIGFPVELNTVYFIGAHNIPNANMNEDGPSMSVNFTSPGCLDHIMKYKKKCVKAGSLWDPNITACKKNEETVEVNFTTTPLGNRYMALIQHSTIIGFSQVFEPHQKKQTRASVVIPVTGDSEGATVQLTPYFPTCGSDCIRHKGTVVLCPQTGVPFPLDNNKSKPGGWLP
notes: extracellular domain; biotinylated when immobilised on the SPR chip
B4: IL-17RC extracellular domain (receptor, UniProt Q8NAC3 21-538, looked up)
chain: LERLVGPQDATHCSPVSLEPWGDEERLRVQFLAQQSLSLAPVTAATARTALSGLSGADGRREERGRGKSWVCLSLGGSGNTEPQKKGLSCRLWDSDILCLPGDIVPAPGPVLAPTHLQTELVLRCQKETDCDLCLRVAVHLAVHGHWEEPEDEEKFGGAADSGVEEPRNASLQAQVVLSFQAYPTARCVLLEVQVPAALVQFGQSVGSVVYDCFEAALGSEVRIWSYTQPRYEKELNHTQQLPDCRGLEVWNSIPSCWALPWLNVSADGDNVHLVLNVSEEQHFGLSLYWNQVQGPPKPRWHKNLTGPQIITLNHTDLVPCLCIQVWPLEPDSVRTNICPFREDPRAHQNLWQAARLQLLTLQSWLLDAPCSLPAEAALCWRAPGGDPCQPLVPPLSWENVTVDKVLEFPLLKGHPNLCVQVNSSEKLQLQECLWADSLGPLKDDVLLLETRGPQDNRSLCALEPSGCTSLPSKASTRAARLGEYLLQDLQSGQCLQLWDDDLGALWACPMDKYIHKR
notes: extracellular domain; biotinylated when immobilised

Assay [1] deals with B4. Kind of assay: SPR, biotinylated receptor on streptavidin chip, cytokine injected. As for the experimental part:
(§1) Binding affinities were calculated via surface plasmon resonance (SPR) on a Biacore® T100 (GE Healthcare). C-terminally biotinylated IL-17 receptors were coupled to immobilized streptavidin on either an SA or CM4-sensor chip (GE Healthcare). An irrelevant, biotinylated protein was captured at equivalent immobilization densities to control flow cells. To measure the second receptor binding interaction, the cytokine was first captured to the immobilized receptor, followed by the second receptor injection. Low coupling densities (200-400 RU) and excess cytokine concentrations were used to optimize the number of cytokine homodimers bound to a single receptor. The surface was regenerated using 3 M MgCl2 between each cycle. For kinetic experiments, a flow rate of 50 μl/min was used. Data was analyzed using Biacore® T100 evaluation software Version 2.0 (GE Healthcare). Affinities are reported as the mean of at least two independent experiments±the standard error of the mean (s.e.m.).
Background: SPR reads the build-up and loss of mass on a sensor chip optically.

Assay [2] addresses T1, preformed IL-17RB-IL-25 complex (IL-25 captured by immobilised IL-17RB) (UniProt Q9NRM6 18-292; Q9H293 33-177, biotin on the C-terminal BirA ligase tag).
T1 construct: extracellular domain;mature; One receptor with one cytokine dimer, assembled stepwise on the SPR chip; not shown: C-terminal BirA ligase tag
T1 sequence 1: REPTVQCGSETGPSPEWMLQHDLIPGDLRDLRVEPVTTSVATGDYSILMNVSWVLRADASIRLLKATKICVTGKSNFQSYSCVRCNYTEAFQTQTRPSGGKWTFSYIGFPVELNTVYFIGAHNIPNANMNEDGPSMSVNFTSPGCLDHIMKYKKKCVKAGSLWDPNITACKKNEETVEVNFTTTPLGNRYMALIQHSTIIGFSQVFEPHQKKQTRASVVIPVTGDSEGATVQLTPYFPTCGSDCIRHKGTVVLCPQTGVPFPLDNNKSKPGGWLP
T1 sequence 2: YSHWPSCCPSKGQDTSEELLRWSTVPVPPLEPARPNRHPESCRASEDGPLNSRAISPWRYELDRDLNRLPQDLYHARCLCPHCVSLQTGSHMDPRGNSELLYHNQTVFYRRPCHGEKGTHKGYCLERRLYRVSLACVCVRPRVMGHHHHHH
Description: SPR; second receptor injected over IL-25 captured on immobilised IL-17RB. The protocol:
(§2) To examiner whether IL-17RA may only specifically bind IL-25 once IL-25 is captured by IL-17RB, IL-17RB was immobilized on an SPR chip, IL-25 was passed over this chip and the affinity of IL-17RA for the IL-17RB-IL-25 complex was measured. […] At concentrations up to 50 μM, no interaction could be observed between IL-17RA and IL-25, or between the IL-17RB-IL-25 complex and a second IL-17RB molecule.
as §1

Assay [3] deals with B2. Kind of assay: SPR, IL-25 captured on immobilised IL-17RB. As for the experimental part:
as §2, §1

The target of assay [4] is T2, preformed IL-17RA-IL-17A complex (IL-17A captured by immobilised IL-17RA) (human, UniProt Q16552 24-155).
T2 construct: mature; One receptor with one cytokine dimer, assembled stepwise on the SPR chip; not shown: C-terminal BirA ligase tag
Description: SPR, second receptor injected over IL-17A captured on immobilised IL-17RA.
Description: (§3) This strategy involved immobilizing one receptor on a SPR chip at a low coupling density in order to minimize possible homo-dimerization (e.g. cross-linking) of the receptors on the chip. The dimeric IL-17 cytokine was then captured by this receptor so that each receptor would be bound to one dimeric IL-17 ligand, leaving an exposed and accessible second receptor-binding site. The second receptor was subsequently passed over the preformed receptor-cytokine complexes to measure the affinity of the second receptor-binding event. In this fashion, the complex was assembled in a stepwise manner and each of the binding affinities was measured (FIG. 3).
as §1, with “The surface was regenerated using 3 M MgCl2 between each cycle. For kinetic experiments, a flow rate of 50 μl/min was used.” left out, “Affinities are reported as the mean of at least two independent experiments±the standard error of the mean (s.e.m.).” left out

The target of assay [5] is T3, preformed IL-17RC-IL-17A complex (IL-17A captured by immobilised IL-17RC) (UniProt Q8NAC3 21-538; Q16552 24-155, biotin on the C-terminal BirA ligase tag).
T3 construct: extracellular domain;mature; One receptor with one cytokine dimer, assembled stepwise on the SPR chip; also called existing IL-17RC-IL-17A complex; not shown: C-terminal BirA ligase tag
Description: SPR, second receptor injected over IL-17A captured on immobilised IL-17RC.
Description: as §3
as §1, with “The surface was regenerated using 3 M MgCl2 between each cycle. For kinetic experiments, a flow rate of 50 μl/min was used.” left out, “Affinities are reported as the mean of at least two independent experiments±the standard error of the mean (s.e.m.).” left out

T2 sequence (Q16552 other isoform, or with tags, fused parts or gaps): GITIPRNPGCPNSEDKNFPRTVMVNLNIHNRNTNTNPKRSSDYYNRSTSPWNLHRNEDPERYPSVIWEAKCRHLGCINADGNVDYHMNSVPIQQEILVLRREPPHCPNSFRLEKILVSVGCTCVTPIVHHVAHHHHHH
T3 sequence (Q16552 other isoform, or with tags, fused parts or gaps): as above

B1: IL-17F (ligand, human)
chain: RKIPKVGHTFFQKPESCPPVPGGSMKLDIGIINENQRVSMSRNIESRSTSPWNYTVTWDPNRYPSEVVQAQCRNLGCINAQGKEDISMNSVPIQQETLVVRRKHQGCSVSFQLEKVLVTVGCTCVTPVIHHVQHHHHHH
notes: mature; For the crystal the His tag was removed with carboxypeptidase A and the complex was lysine-methylated; For SPR the cytokine carried the C-terminal hexa-His tag; also called IL-17F homodimer
In turn, B1 yielded a dissociation constant Kd in assay [1] of 4.4 nM. B2: the binding result in assay [2] was “no binding (tested: up to 50 µM)”.

B3: IL-25 (ligand)
chain: YSHWPSCCPSKGQDTSEELLRWSTVPVPPLEPARPNRHPESCRASEDGPLNSRAISPWRYELDRDLNRLPQDLYHARCLCPHCVSLQTGSHMDPRGNSELLYHNQTVFYRRPCHGEKGTHKGYCLERRLYRVSLACVCVRPRVMGHHHHHH
notes: mature; The form 'mature' is inferred from secretion; also called IL-17E
For B3, the binding result in assay [3] is on record as “binds”.

As to B4, the figures for the Kd in assay [4] and in assay [5] were 174 nM and 8000 nM, respectively.

One may read the Kd as the concentration at which binding is half-saturated. The low end stands for higher affinity, the high end for lower affinity.
